Test [1] has as its target T1, human serum albumin (human, UniProt P02768 25-609).
T1 construct: Bought recombinant product; also called HSA; Albucult
Briefly: SPR Biacore2000, HSA immobilized on CM-5, polypeptide as analyte, 1:1 Langmuir fit, relative values.
Procedure: (§2) Biosensor analysis on a Biacore2000 instrument (GE Healthcare) was performed with HSA (Albucult®, Novozymes), CSA (purified in-house from cynomolgus serum), RSA (Sigma-Aldrich, Cat. No. A6272) and MSA (Sigma-Aldrich, Cat. No. A3559) immobilized by amine coupling onto the carboxylated dextran layer of the surfaces of CM-5 chips (research grade; GE Healthcare) according to the manufacturer's recommendations.
(§3) ABD variants were used as analytes and were injected in duplicates over the chip at three analyte concentrations (2.5, 10 and 40 nM). The association phase was 5 min followed by a long dissociation phase (60 min) to account at least partially for the slow off-rate of the ABD variants. […] Therefore, all KD's are given as relative KD values only.
(§4) After subtraction of reference surface and buffer injection, curves were fitted to a 1:1 (Langmuir) binding model using BlAevaluation software with correction for mass transfer and with RUmax set as a local parameter.

Test [2] deals with T2, rat serum albumin (rat, UniProt P02770 25-608).
T2 construct: Bought; also called RSA
Briefly: SPR Biacore2000 sensorgrams. As to the method:
(§1) The binding of the ABD variants obtained in Example 1 to human serum albumin (HSA), rat serum albumin (RSA), cynomolgus serum albumin (CSA) and mouse serum albumin (MSA) was analyzed by surface plasmon resonance using a Biacore2000 instrument.
A general note: Surface plasmon resonance follows binding to a sensor surface in real time, without labels.

Test [3] deals with T3, mouse serum albumin (mouse, UniProt P07724 25-608).
T3 construct: Bought; also called MSA
Kind of test: SPR Biacore2000 sensorgrams. As for the experimental part: as §1

Test [4] addresses T2, rat serum albumin. Kind of test: SPR Biacore2000, albumin immobilized on CM-5, polypeptide as analyte, relative KD.
Procedure: as §2, §3, §4
Test [5] deals with T3, mouse serum albumin. Described as above.
Procedure: as §2, §3, §4
In test [6] the target is T1, human serum albumin. Described as above.
Procedure: as §2, §3, §4
The next test deals with T4, cynomolgus serum albumin (cynomolgus).
T4 construct: Purified from serum; also called CSA
The test is described as above.

Here are results for five molecules from patent publication US20150225464A1 (Affibody, published 2015).

The term Kd denotes the constant that tells how readily two partners part at equilibrium. Low readings indicate higher affinity, high ones lower affinity. Usually koff stands for the rate constant with which the complex falls apart. Read a low koff as a long-lived complex. Broadly, the kon is the second-order rate constant of association.

T2 sequence (P02770 25-608 limits assumed): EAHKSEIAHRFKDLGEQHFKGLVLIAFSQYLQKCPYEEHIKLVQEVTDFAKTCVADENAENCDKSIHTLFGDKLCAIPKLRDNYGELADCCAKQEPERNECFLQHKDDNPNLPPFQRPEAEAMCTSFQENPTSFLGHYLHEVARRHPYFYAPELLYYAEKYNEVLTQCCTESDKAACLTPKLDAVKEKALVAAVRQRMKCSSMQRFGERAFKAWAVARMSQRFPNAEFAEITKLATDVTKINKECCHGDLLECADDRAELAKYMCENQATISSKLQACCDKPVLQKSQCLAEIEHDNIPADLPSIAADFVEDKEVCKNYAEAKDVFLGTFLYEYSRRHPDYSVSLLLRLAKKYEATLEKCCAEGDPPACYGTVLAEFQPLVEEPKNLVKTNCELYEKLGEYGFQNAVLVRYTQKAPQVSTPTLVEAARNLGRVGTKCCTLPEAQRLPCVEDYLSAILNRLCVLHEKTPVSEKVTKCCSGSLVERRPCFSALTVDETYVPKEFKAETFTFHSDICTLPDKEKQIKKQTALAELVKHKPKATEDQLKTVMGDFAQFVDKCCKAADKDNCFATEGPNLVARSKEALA
T1 sequence (P02768 25-609 limits assumed): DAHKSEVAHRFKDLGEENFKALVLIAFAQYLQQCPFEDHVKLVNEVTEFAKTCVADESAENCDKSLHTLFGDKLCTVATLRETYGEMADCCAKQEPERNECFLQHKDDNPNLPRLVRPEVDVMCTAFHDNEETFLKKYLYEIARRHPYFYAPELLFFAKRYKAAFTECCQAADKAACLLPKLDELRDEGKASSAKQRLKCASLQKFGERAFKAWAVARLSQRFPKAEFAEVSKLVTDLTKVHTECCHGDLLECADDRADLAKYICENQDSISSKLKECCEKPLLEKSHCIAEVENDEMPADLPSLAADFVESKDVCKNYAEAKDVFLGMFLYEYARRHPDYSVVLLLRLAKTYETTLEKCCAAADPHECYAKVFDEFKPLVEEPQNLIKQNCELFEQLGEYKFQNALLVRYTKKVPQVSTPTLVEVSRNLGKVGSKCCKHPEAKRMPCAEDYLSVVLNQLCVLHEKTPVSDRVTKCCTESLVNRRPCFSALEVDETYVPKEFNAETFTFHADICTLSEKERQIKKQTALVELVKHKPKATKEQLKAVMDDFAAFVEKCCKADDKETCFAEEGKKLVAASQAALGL
T4 sequence (A2V9Z4 25-608): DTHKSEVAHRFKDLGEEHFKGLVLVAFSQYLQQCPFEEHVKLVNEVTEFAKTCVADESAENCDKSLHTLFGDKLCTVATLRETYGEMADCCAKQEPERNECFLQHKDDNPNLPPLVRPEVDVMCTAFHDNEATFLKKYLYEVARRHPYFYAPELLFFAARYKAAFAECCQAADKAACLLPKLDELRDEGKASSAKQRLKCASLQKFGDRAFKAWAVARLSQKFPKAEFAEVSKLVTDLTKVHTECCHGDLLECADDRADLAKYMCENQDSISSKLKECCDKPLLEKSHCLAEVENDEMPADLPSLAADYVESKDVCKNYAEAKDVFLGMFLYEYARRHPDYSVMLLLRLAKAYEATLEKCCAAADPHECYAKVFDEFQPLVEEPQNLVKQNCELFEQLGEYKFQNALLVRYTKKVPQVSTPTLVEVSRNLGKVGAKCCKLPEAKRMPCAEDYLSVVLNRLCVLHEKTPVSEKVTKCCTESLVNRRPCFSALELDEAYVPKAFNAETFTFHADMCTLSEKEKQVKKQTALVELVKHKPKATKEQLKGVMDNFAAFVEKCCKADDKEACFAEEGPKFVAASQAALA
Procedure for cynomolgus serum albumin: as §2, §3, §4

B1: PEP12379 (designed binder)
chain: GSSLAEAKEAANAELDSYGVSDFYKNLIDKAKTVEGVEALKDAILAALP
notes: R23N against PEP07843 (position counted on the 46-mer without GSS); Control polypeptide, expressed in E. coli; also called ABD variant; R23N variant of PEP07843
As for B1, in the test with human serum albumin [1], the Kd came out at 14 pM, the koff was 2.36e-05 s⁻¹ and the association rate constant (kon) came to 1.7e+06 M⁻¹ s⁻¹. Moreover, in the test with rat serum albumin [2], the binding result is listed as “binds”. For the same molecule, the binding result in the test with mouse serum albumin [3] is given as “binds”.

B2: PEP12380 (designed binder)
chain: GSSLAEAKEAANAELDSYGVSDFYKKLIDKAKTVEGVEALKDAILAALP
notes: Inventive variant; 46 residues with an N-terminal GSS extension; R23K against PEP07843 (position counted on the 46-mer without GSS); Expressed in E. coli; also called ABD variant; R23K variant of PEP07843
Regarding B2, the dissociation constant (Kd) with human serum albumin [1] is 7.5 pM; in the test with rat serum albumin [4], 9.3 pM; with mouse serum albumin [5] it was 117 pM; with human serum albumin [6] it was 7.5 pM; with cynomolgus serum albumin, 11 pM. In addition, in the test with human serum albumin [1], the off-rate (koff) was determined as 2.62e-05 s⁻¹. In the test with human serum albumin [1], this molecule showed an association rate constant (kon) of 3.48e+06 M⁻¹ s⁻¹.

B3: PEP07843 (designed binder)
chain: GSSLAEAKEAANAELDSYGVSDFYKRLIDKAKTVEGVEALKDAILAALP
notes: single Arg at position 23 of the 46-mer; GSS extension at the N-terminus; also called ABD variant; control
As to B3, the Kd with human serum albumin [1] is 6.7 pM; with rat serum albumin [4] it was 8.2 pM; with mouse serum albumin [5] it was 87 pM; in the test with human serum albumin [6], 6.7 pM; with cynomolgus serum albumin it was 9.8 pM. Further, the koff with human serum albumin [1] came to 2.99e-05 s⁻¹. The on-rate (kon) in the test with human serum albumin [1] came to 4.49e+06 M⁻¹ s⁻¹.

B4: PEP12381 (designed binder)
chain: GSSLAEAKEAANAELDSYGVSDFYKSLIDKAKTVEGVEALKDAILAALP
notes: Control polypeptide; 46 residues with an N-terminal GSS extension; R23S against PEP07843 (position counted on the 46-mer without GSS); Expressed in E. coli; also called ABD variant; R23S variant of PEP07843
For B4, in the test with human serum albumin [1], the dissociation constant Kd was 17 pM, the koff stood at 3.08e-05 s⁻¹ and the on-rate constant (kon) was 1.83e+06 M⁻¹ s⁻¹. Further, the binding result in the test with rat serum albumin [2] is listed as “binds”. Further, the binding result with mouse serum albumin [3] is listed as “binds”.

B5: PEP06923 (designed binder)
chain: GSSLAEAKVLANRELDKYGVSDFYKRLINKAKTVEGVEALKLHILAALP
notes: also called ABD variant; control polypeptide
With B5, the binding result in the test with rat serum albumin [2] and with mouse serum albumin [3] was “binds” each time.
